Patent US20250163158A1 (Astellas, published 2025)

Target: T1, integrin α11 (ITGA11) (human, UniProt Q9UKX5 23-1188)
T1 sequence (looked up): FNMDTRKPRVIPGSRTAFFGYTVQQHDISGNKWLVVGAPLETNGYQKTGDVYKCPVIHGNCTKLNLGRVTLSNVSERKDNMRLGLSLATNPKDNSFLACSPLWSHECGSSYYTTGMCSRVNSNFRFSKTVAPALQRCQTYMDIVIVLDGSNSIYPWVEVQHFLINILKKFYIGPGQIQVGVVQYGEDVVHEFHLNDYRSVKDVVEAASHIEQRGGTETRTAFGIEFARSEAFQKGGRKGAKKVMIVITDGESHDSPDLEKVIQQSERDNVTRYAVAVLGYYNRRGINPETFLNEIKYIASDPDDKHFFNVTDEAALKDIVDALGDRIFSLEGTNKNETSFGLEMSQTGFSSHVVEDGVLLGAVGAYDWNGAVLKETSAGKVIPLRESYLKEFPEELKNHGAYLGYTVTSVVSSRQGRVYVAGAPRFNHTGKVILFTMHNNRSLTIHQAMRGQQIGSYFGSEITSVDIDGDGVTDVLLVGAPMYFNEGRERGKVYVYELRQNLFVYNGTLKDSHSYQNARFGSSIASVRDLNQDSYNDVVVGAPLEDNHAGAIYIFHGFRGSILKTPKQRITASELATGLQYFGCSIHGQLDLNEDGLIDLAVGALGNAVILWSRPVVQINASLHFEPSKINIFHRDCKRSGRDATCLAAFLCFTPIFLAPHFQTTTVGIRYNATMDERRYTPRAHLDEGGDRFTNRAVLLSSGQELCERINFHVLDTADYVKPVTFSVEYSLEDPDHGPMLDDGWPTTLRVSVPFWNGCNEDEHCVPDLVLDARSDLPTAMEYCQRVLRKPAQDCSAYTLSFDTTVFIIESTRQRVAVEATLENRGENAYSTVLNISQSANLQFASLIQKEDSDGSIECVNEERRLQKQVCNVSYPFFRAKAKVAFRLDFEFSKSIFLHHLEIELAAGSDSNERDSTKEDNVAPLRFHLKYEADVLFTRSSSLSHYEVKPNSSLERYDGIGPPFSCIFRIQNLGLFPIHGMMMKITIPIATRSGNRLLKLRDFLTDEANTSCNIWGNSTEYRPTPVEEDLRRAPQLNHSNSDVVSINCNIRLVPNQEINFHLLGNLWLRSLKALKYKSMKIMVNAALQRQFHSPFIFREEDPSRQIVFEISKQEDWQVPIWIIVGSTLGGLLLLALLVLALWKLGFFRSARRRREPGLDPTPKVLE
Assay: cell-based or functional assay

luminescence intensity ratio, ADCC Reporter Bioassay kit, non-senescent IMR-90 cell, relative to the cell without antibody regarded as 1: 1.4 ratio
luminescence intensity ratio, ADCC Reporter Bioassay kit, senescent IMR-90 cell, relative to the cell without antibody regarded as 1: 4.7 ratio
B1: anti-ITGA11 antibody #014 (antibody, mouse IgG2a, kappa, V domains shown)
VH: EVQLVESGGGLVQPGGSLRLSCAASGFNLTSSYIHWVRQAPGKGLEWVASISSHSSYTYYADSVKGRFTISADTSKNTAYLQMNSLRAEDTAVYYCARYWYYSAWALDYWGQGTLVTVSS
VL: DIQMTQSPSSLSASVGDRVTITCRASQSVSSAVAWYQQKPGKAPKLLIYSASSLYSGVPSRFSGSRSGTDFTLTISSLQPEDFATYYCQQSAPYSSLITFGQGTKVEIKR
